Results on twelve substances are retold here after patent US20260092084A1, “PEPTIDE AND ASSEMBLY OR COMPOSITION CONTAINING SAID PEPTIDE” (priority 2022, published 2026).

A short description of data set [1]: Average particle diameter of peptide assembly by dynamic light scattering. The data set is classed as physicochemical. Conditions: 10 mM HEPES, 150 mM NaCl buffer (pH 7); 40 mM DMSO stock diluted 100-fold; stood overnight; 25° C.; main peak of scattering intensity. On the procedure: 5 mg of each of the peptides of Examples 1-1 to 1-5 and Reference Examples 1-1 to 1-8 was dissolved in dimethyl sulfoxide (DMSO) to provide a stock solution (40 mM). To a 10 mM HEPES and 150 mM NaCl buffer (pH 7) under stirring with a micromixer (E-36, Taitec Corporation), 4 μL of the stock solution was dropped to be diluted 100-fold. The dilution was vortexed and then left to stand still at room temperature overnight. Then, 200 μL of the dilution was used as a measurement sample and measurement of particle diameter distribution was performed at 25° C. by dynamic light scattering with Litesizer 500 (Anton Paar GmBH). The results determined by defining the main peak of a scattering intensity as the average particle diameter of an assembly are shown in Table 3. Provided that, when a polydispersity index was more than 20%, the main peak was determined with further reference to a volume-based particle diameter distribution.

The nature of data set [2]: pH dependency of particle diameter of peptide assembly (dynamic light scattering). The data set is classed as physicochemical. Conditions: 25° C.; for Average particle diameter, pH 6: 10 mM MES, 150 mM NaCl buffer (pH 6.0); for Average particle diameter, pH 7: dilution A (pH 6.0) diluted with 10 mM HEPES, 150 mM NaCl buffer (pH 7.4). As to the method: 5 mg of each of the peptides of Examples 2-1 and 2-2 was dissolved in DMSO to provide a stock solution (50 mg/mL). To a 10 mM MES and 150 mM NaCl buffer (pH 6.0) under stirring with a micromixer (E-36, Taitec Corporation), 4 μL of the stock solution was dropped to be diluted 100-fold. Thus, a dilution A was obtained. The dilution A was vortexed and then left to stand still at room temperature overnight. 100 μL of the dilution A was used and diluted with 300 μL of the same MES buffer or a 10 mM HEPES and 150 mM NaCl buffer (pH 7.4), and stirred for 1 hour. Thus, a dilution B was obtained. 200 μL of each of the dilution A and the dilution B after having been left to stand still overnight was used as a measurement sample and measurement of particle diameter distribution was performed at 25° C. with Litesizer 500 (Anton Paar GmBH).

Square brackets hold non-standard residues; d marks the D form. Ends that are not written are not given here. * marks the point of attachment. pS = N[C@@H](COP(=O)(O)O)C(=O)O; Tfa = O=C(C(F)(F)F)* Bounds are passed on as bounds.

In turn, “DSpSEEK-AAEAAEAA-RRK(Tfa)RR (DS[pS]EEKAAEAAEAARRK(Tfa)RR-NH2; N-terminus assumed; SMILES C[C@H](NC(=O)[C@H](C)NC(=O)[C@H](CCC(=O)O)NC(=O)[C@H](C)NC(=O)[C@H](C)NC(=O)[C@H](CCCCN)NC(=O)[C@H](CCC(=O)O)NC(=O)[C@H](CCC(=O)O)NC(=O)[C@H](COP(=O)(O)O)NC(=O)[C@H](CO)NC(=O)[C@@H](N)CC(=O)O)C(=O)N[C@@H](CCC(=O)O)C(=O)N[C@@H](C)C(=O)N[C@@H](C)C(=O)N[C@@H](CCCNC(=N)N)C(=O)N[C@@H](CCCNC(=N)N)C(=O)N[C@@H](CCCCNC(=O)C(F)(F)F)C(=O)N[C@@H](CCCNC(=N)N)C(=O)N[C@@H](CCCNC(=N)N)C(N)=O) [Example 1-4]” came in with an Average particle diameter in data set [1] of 450 nm.
Still for that read-out and setting: the same measure for “DSpSEEKW-WEWWEWW-RRK(Tfa)RR (DS[pS]EEKWWEWWEWWRRK(Tfa)RR-NH2; N-terminus assumed; SMILES N=C(N)NCCC[C@H](NC(=O)[C@H](CCCNC(=N)N)NC(=O)[C@H](CCCCNC(=O)C(F)(F)F)NC(=O)[C@H](CCCNC(=N)N)NC(=O)[C@H](CCCNC(=N)N)NC(=O)[C@H](Cc1c[nH]c2ccccc12)NC(=O)[C@H](Cc1c[nH]c2ccccc12)NC(=O)[C@H](CCC(=O)O)NC(=O)[C@H](Cc1c[nH]c2ccccc12)NC(=O)[C@H](Cc1c[nH]c2ccccc12)NC(=O)[C@H](CCC(=O)O)NC(=O)[C@H](Cc1c[nH]c2ccccc12)NC(=O)[C@H](Cc1c[nH]c2ccccc12)NC(=O)[C@H](CCCCN)NC(=O)[C@H](CCC(=O)O)NC(=O)[C@H](CCC(=O)O)NC(=O)[C@H](COP(=O)(O)O)NC(=O)[C@H](CO)NC(=O)[C@@H](N)CC(=O)O)C(N)=O) [Example 1-3]”: 350 nm.
On to “GRSHHKRK-LLELLELL-HRHHVQER (GRSHHKRKLLELLELLHRHHVQER; a peptide designed to have two hydrophilic regions and a hydrophobic region located therebetween) [Example 2-1]”, for which, in data set [2], the “Average particle diameter, pH 6” value is 440 nm and the “Average particle diameter, pH 7” value worked out at 4 nm.
For “HHIRRKRQ-WWEWWEWW-HGDHHKSN (HHIRRKRQWWEWWEWWHGDHHKSN; a peptide designed to have two hydrophilic regions and a hydrophobic region located therebetween) [Example 2-2]” the same measures were 4,400 nm and 210 nm.
“KGKILRPR-AAAAAAAA (KGKILRPRAAAAAAAA-NH2) [1-8]”: the Average particle diameter in data set [1] is >1,000 nm.
The same measure, in the same setting: for “KGKILRPR-AAEAAEAA (KGKILRPRAAEAAEAA-NH2) [1-7]” the value was 520 nm; for “KGKILRPR-FFFFFFFF (KGKILRPRFFFFFFFF-NH2) [1-4]”, 50 nm.
Same read-out and setting: the same measure for “KGKILRPR-LLELLELL (KGKILRPRLLELLELL-NH2) [Reference Example 1-5]”: 5 nm; for “KGKILRPR-LLLLLLLL (KGKILRPRLLLLLLLL-NH2) [1-1]”: 36 nm.
The same measure, in the same setting: the same measure for “KGKILRPR-WWEWWEWW (KGKILRPRWWEWWEWW-NH2) [1-6]”: 10 nm; for “KGKILRPR-WWWWWWWW (KGKILRPRWWWWWWWW-NH2) [1-3]”: 920 nm.
Turning to “KGKILRPR-YYYYYYYY (KGKILRPRYYYYYYYY-NH2) [1-2]”, in data set [1], the Average particle diameter is reported as 210 nm.
